Test system: Saccharomyces cerevisiae PS128 hsf1 delta, HSF1(1-493) fusion
Test: growth estimate (transactivation domain function in HSF1 fusion, heat-shock survival) (a.u. (slope of normalised read count over time)); higher = stronger growth at 37°C, i.e. more transactivation activity
Conditions: library: design library
In short: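 Designed transactivation-domain oligos were fused to truncated yeast HSF1 (amino acids 1–493) and expressed in an hsf1-deleted yeast strain. Cells were replica-plated onto –trp 5-FOA plates and incubated at 30°C or 37°C for 0, 2, 4, 6 and 8 days. Inserts were PCR-amplified and Illumina MiSeq-sequenced as six barcoded replicates from one experiment. Growth estimate is the slope of a robust linear fit over time of read counts normalised to sample totals and starting count.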

Row | Sequence | growth estimate
1 | PEFPGIELQELQALQALLQQ | < -0.25
2 | DFKLDMLGDFDLDMLG | 5.13
3 | PEFPGIELQELQELQALRQQ | -0.168
4 | PFPGTQDDFLKWWRSEEAQ | < -0.25
5 | DLDESWDYIFETTP | 3.58
6 | MLSSHGFSGDTSALLDLFSP | -0.115
7 | PFDLDMLGDFDLDMLG | 4.25
8 | EDGDEFSLWDSML | 0.533
9 | QQAGEIAQLWDFN | < -0.25
10 | DFDLDMLGDFDKDMLG | 0.54
11 | EFNDLRDLDFILSN | -0.248
12 | GFDLDMLGDFDLDMLG | 1.03
13 | EDLYSILASDVY | -0.238
14 | MLSSHGFSVDTSALLDLRSP | < -0.25
15 | PEGPGIELQELQELQALLQQ | < -0.25
16 | QQNGEIAQLWRFN | -0.166
17 | EDLYSILKSDVY | < -0.25
18 | EDLPSILWSDVY | < -0.25
19 | PFPDTQDDFLKWWRSKEAQ | -0.183
20 | TMDDVYRYLFDD | 1.71
21 | EDLASILWSDVY | -0.161
22 | VADDIWEELLSPDL | 0.482
23 | DLDESWDYIFKTTE | 0.154
24 | EDLYSIRWSDVY | -0.219

Row | Sequence | growth estimate
25 | DFDLDMLKDFDLDMLG | 2.58
26 | KFPDTQDDFLKWWRSEEAQ | -0.0955
27 | TMDDVYNYLFRD | -0.0803
28 | MLSSHGFSVDTSALLDLFKP | -0.179
29 | KLSSHGFSVDTSALLDLFSP | -0.241
30 | EFPDLLDLDFILSN | 0.17
31 | EDRDEFSLWDSML | 0.0908
32 | LRDYDFLFGNDFA | -0.135
33 | DELSWIIELLGKDG | -0.173
34 | PFPDTQDDFLKWWRSREAQ | < -0.25
35 | TMDDVYNYLRDD | < -0.25
36 | DLDESWDYIFPTTE | 0.0438
37 | MLSSHGFSVDGSALLDLFSP | -0.0946
38 | EDLYSILWSDRY | -0.0848
39 | QQNGGIAQLWDFN | -0.189
40 | EDDGEFSLWDSML | 0.47
41 | DFDLDMLGDFDLDMAG | 30.2
42 | DELSWIIEKLEKDG | < -0.25
43 | EFNDLGDLDFILSN | -0.0268
44 | AADDIWEELLSEDL | 2.1
45 | VADDIWEELRSEDL | -0.205
46 | EDDDEGSLWDSML | < -0.25
47 | GLSSHGFSVDTSALLDLFSP | 0.18
48 | VADDIWPELLSEDL | 0.612

Row | Sequence | growth estimate
49 | DLDESWDYIFEKTE | -0.233
50 | AELSWIIELLEKDG | -0.248
51 | AFNDLLDLDFILSN | 0.948
52 | PFPDTQDDFLKWWRGEEAQ | 0.0794
53 | PEFPGIPLQELQELQALLQQ | -0.204
54 | EDLYSILWRDVY | -0.193
55 | VADDIWEELLSGDL | 3.96
56 | PFPDTQDDFLKPWRSEEAQ | < -0.25
57 | EFNDLLALDFILSN | -0.112
58 | DFDPDMLGDFDLDMLG | 7.23
59 | EFNDLLDLDFILSR | 0.761
60 | DFGLDMLGDFDLDMLG | 2.44
61 | EDLYSILWSGVY | -0.0514
62 | RFNDLLDLDFILSN | -0.133
63 | PAFPGIELQELQELQALLQQ | -0.0264
64 | QQNGEGAQLWDFN | < -0.25
65 | DKDLDMLGDFDLDMLG | -0.127
66 | KQNGEIAQLWDFN | < -0.25
67 | EDDDEFSPWDSML | -0.228
68 | ALDESWDYIFETTE | 0.813
69 | VADDIWEELPSEDL | < -0.25
70 | VADDIWEELLSEDK | -0.0473
71 | PEFPGIEAQELQELQALLQQ | -0.167
72 | EPDDEFSLWDSML | 0.531

Row | Sequence | growth estimate
73 | PFPDTQDDFLKWWRSEEGQ | 0.109
74 | EDDDEFSLWASML | 2.21
75 | LFDYDFLKGNDFA | -0.139
76 | EDDPEFSLWDSML | 1.77
77 | DLDESWDYIFEATE | 2.47
78 | LFDYDFLFGNDFK | 2.23
79 | DFDLDGLGDFDLDMLG | 2.75
80 | MLSAHGFSVDTSALLDLFSP | -0.231
81 | EDLYGILWSDVY | 0.0695
82 | VADDIWAELLSEDL | 8.23
83 | PAPDTQDDFLKWWRSEEAQ | 0.0134
84 | EFNDLLDLDFILKN | 2.1
85 | RMDDVYNYLFDD | -0.0132
86 | PFPDTQDDFLKWWGSEEAQ | 1.82
87 | TMDDVYNYLGDD | -0.149
88 | VADDKWEELLSEDL | -0.236
89 | QQNGEIAGLWDFN | -0.148
90 | DADLDMLGDFDLDMLG | 0.604
91 | GFPDTQDDFLKWWRSEEAQ | -0.128
92 | QQNKEIAQLWDFN | -0.241
93 | DLGESWDYIFETTE | 0.355
94 | EDLYSILWKDVY | < -0.25
95 | DFDLDMLGDFDLDMLP | 22.2
96 | EFNDLLDLDFGLSN | 4.29

Row | Sequence | growth estimate
97 | EFNDLLPLDFILSN | < -0.25
98 | MASSHGFSVDTSALLDLFSP | 0.0397
99 | EKDDEFSLWDSML | -0.193
100 | MLSSHGFSKDTSALLDLFSP | -0.239
101 | TMADVYNYLFDD | 0.169
102 | EDLYSILWSDVP | 0.204
103 | MLSSHGFSVDTSALLDLFSG | -0.181
104 | MLSSHGFSVDTSAALDLFSP | -0.124
105 | MLSSHGFSADTSALLDLFSP | -0.026
106 | LPDYDFLFGNDFA | 2.12
107 | MKSSHGFSVDTSALLDLFSP | -0.215
108 | DFDLDMLGDFDLPMLG | 1.24
109 | EDPYSILWSDVY | 0.731
110 | RQNGEIAQLWDFN | < -0.25
111 | PLSSHGFSVDTSALLDLFSP | 0.0027
112 | RFPDTQDDFLKWWRSEEAQ | -0.221
113 | MLSSHGFSVDTSAGLDLFSP | -0.207
114 | QQNGEIAQLWGFN | < -0.261
115 | EDDDEASLWDSML | < -0.25
116 | DEPSWIIELLEKDG | -0.161
117 | DELSWIIELLEKDA | 2.02
118 | MLSSPGFSVDTSALLDLFSP | 0.169
119 | DFDLDMKGDFDLDMLG | 0.067
120 | DFDLDMLGDFDLDGLG | 2.79

Row | Sequence | growth estimate
121 | MLSSHGFRVDTSALLDLFSP | -0.241
122 | TMDDVYGYLFDD | 0.586
123 | QQNGERAQLWDFN | -0.0438
124 | LFDYDFRFGNDFA | -0.0564
125 | DELSWIIELLEKAG | < -0.25
126 | DFDLDMLGDFDLDMLK | 1.65
127 | LFDYDFLFGNDGA | 0.693
128 | RADDIWEELLSEDL | 0.445
129 | RFDLDMLGDFDLDMLG | 0.634
130 | PPFPGIELQELQELQALLQQ | -0.187
131 | EDDDEFSLWDSMA | -0.238
132 | VADDIWEELLSEDP | 0.229
133 | DFDLDMLGAFDLDMLG | 5.97
134 | PEFPGIALQELQELQALLQQ | -0.223
135 | PEFPGIELQELQELQALLRQ | -0.245
136 | LFGYDFLFGNDFA | 1.68
137 | DFDLDMLGDFDLDRLG | 0.414
138 | DLDESWDYIFETTA | 0.992
139 | EFRDLLDLDFILSN | 0.421
140 | EFNDLLDLDFIKSN | -0.165
141 | QQRGEIAQLWDFN | < -0.25
142 | PFPDTQDDFLKWWRKEEAQ | -0.247
143 | TMDDVYNYLFDA | 0.681

Source: the supplement of paper PMC5949888
